According to the supplement of paper PMC5998384:

Experiments:
[1] = tested on: HeLa Kyoto; experiment: solubility in G1/S (NP-40 vs SDS abundance) (log2 ratio); higher = more soluble; settings: cell cycle stage: G1/S
[2] = tested on: HeLa Kyoto; experiment: melting temperature (median over replicates), in situ; higher = more thermally stable
[3] = tested on: HeLa Kyoto; experiment: solubility change mitosis vs G1/S (difference of NP-40 vs SDS log2 ratios) (log2 ratio difference); higher = more soluble in mitosis
[4] = tested on: HeLa Kyoto; experiment: thermal stability score vs G1/S (z-score of summed log2 fold changes over temperatures); higher = more thermally stable than in G1/S
[5] = cell cycle stage: early G1 (4.5 h after nocodazole release)
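Wherever melting temperature (median over replicates), in situ is given: HeLa Kyoto cells synchronized by double thymidine or nocodazole block, proteins quantified by TMT10plex mass spectrometry, three independent biological replicates.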
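Wherever solubility change mitosis vs G1/S (difference of NP-40 vs SDS log2 ratios) is given: synchronized HeLa Kyoto cells (double thymidine block for G1/S, nocodazole release for mitosis), protein amounts in NP-40 versus SDS lysates quantified by mass spectrometry, three biological replicates.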
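Wherever solubility in G1/S (NP-40 vs SDS abundance) is given: HeLa Kyoto cells arrested at G1/S by double thymidine block, proteins quantified by TMT10plex mass spectrometry in mild NP-40 versus SDS extracts, three biological replicates.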
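Wherever thermal stability score vs G1/S (z-score of summed log2 fold changes over temperatures) is given: synchronized HeLa Kyoto cells, proteins quantified by TMT10plex mass spectrometry, three biological replicates, mitosis taken 0.5 h after nocodazole release, G1/S directly after double thymidine block.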

Substance	solubility in G1/S (log2) [1]	melting temperature ([2]; cell cycle stage: G1/S)	melting temperature ([2]; cell cycle stage: mitosis)	solubility change mitosis (log2) [3]	thermal stability score [4, 5]	thermal stability score ([4]; cell cycle stage: mitosis)
MAACGRVRRMFRLSAALHLLLLFAAGAEKLPGQGVHSQGQGPGANFVSFVGQAGGGGPAGQQLPQLPQSSQLQQQQQQQQQQQQPQPPQPPFPAGGPPARRGGAGAGGGWKLAEEESCREDVTRVCPKHTWSNNLAVLECLQDVREPENEISSDCNHLLWNYKLNLTTDPKFESVAREVCKSTITEIKECADEPVGKGYMVSCLVDHRGNITEYQCHQYITKMTAIIFSDYRLICGFMDDCKNDINILKCGSIRLGEKDAHSQGEVVSCLEKGLVKEAEEREPKIQVSELCKKAILRVAELSSDDFHLDRHLYFACRDDRERFCENTQAGEGRVYKCLFNHKFEESMSEKCREALTTRQKLIAQDYKVSYSLAKSCKSDLKKYRCNVENLPRSREARLSYLLMCLESAVHRGRQVSSECQGEMLDYRRMLMEDFSLSPEIILSCRGEIEHHCSGLHRKGRTLHCLMKVVRGEKGNLGMNCQQALQTLIQETDPGADYRIDRALNEACESVIQTACKHIRSGDPMILSCLMEHLYTEKMVEDCEHRLLELQYFISRDWKLDPVLYRKCQGDASRLCHTHGWNETSEFMPQGAVFSCLYRHAYRTEEQGRRLSRECRAEVQRILHQRAMDVKLDPALQDKCLIDLGKWCSEKTETGQELECLQDHLDDLVVECRDIVGNLTELESEDIQIEALLMRACEPIIQNFCHDVADNQIDSGDLMECLIQNKHQKDMNEKCAIGVTHFQLVQMKDFRFSYKFKMACKEDVLKLCPNIKKKVDVVICLSTTVRNDTLQEAKEHRVSLKCRRQLRVEELEMTEDIRLEPDLYEACKSDIKNFCSAVQYGNAQIIECLKENKKQLSTRCHQKVFKLQETEMMDPELDYTLMRVCKQMIKRFCPEADSKTMLQCLKQNKNSELMDPKCKQMITKRQITQNTDYRLNPMLRKACKADIPKFCHGILTKAKDDSELEGQVISCLKLRYADQRLSSDCEDQIRIIIQESALDYRLDPQLQLHCSDEISSLCAEEAAAQEQTGQVEECLKVNLLKIKTELCKKEVLNMLKESKADIFVDPVLHTACALDIKHHCAAITPGRGRQMSCLMEALEDKRVRLQPECKKRLNDRIEMWSYAAKVAPADGFSDLAMQVMTSPSKNYILSVISGSICILFLIGLMCGRITKRVTRELKDR [GLG1]	-0.0893	56.3 °C	56.5 °C	-0.0491	-1.04	-1.91
MDEAGSSASGGGFRPGVDSLDEPPNSRIFLVISKYTPESVLRERFSPFGDIQDIWVVRDKHTKESKGIAFVKFARSSQACRAMEEMHGQCLGPNDTKPIKVFIAQSRSSGSHRDVEDEELTRIFVMIPKSYTEEDLREKFKVYGDIEYCSIIKNKVTGESKGLGYVRYLKPSQAAQAIENCDRSFRAILAEPKNKASESSEQDYYSNMRQEALGHEPRVNMFPFVGEQQSEFSSFDKNDSRGQEAISKRLSVVSRVPFTEEQLFSIFDIVPGLEYCEVQRDPYSNYGHGVVQYFNVASAIYAKYKLHGFQYPPGNRIGVSFIDDGSNATDLLRKMATQMVAAQLASMVWNNPSQQQFMQFGGSSGSQLPQIQTDVVLPSCKKKAPAETPVKERLFIVFNPHPLPLDVLEDIFCRFGNLIEVYLVSGKNVGYAKYADRISANDAIATLHGKILNGVRLKVMLADSPREESNKRQRTY [RBM45]	0.000113	48.4 °C	50 °C	0.448	0.337	0.251
MPSALAIFTCRPNSHPFQERHVYLDEPIKIGRSVARCRPAQNNATFDCKVLSRNHALVWFDHKTGKFYLQDTKSSNGTFINSQRLSRGSEESPPCEILSGDIIQFGVDVTENTRKVTHGCIVSTIKLFLPDGMEARLRSDVIHAPLPSPVDKVAANTPSMYSQELFQLSQYLQEALHREQMLEQKLATLQRLLAITQEASDTSWQALIDEDRLLSRLEVMGNQLQACSKNQTEDSLRKELIALQEDKHNYETTAKESLRRVLQEKIEVVRKLSEVERSLSNTEDECTHLKEMNERTQEELRELANKYNGAVNEIKDLSDKLKVAEGKQEEIQQKGQAEKKELQHKIDEMEEKEQELQAKIEALQADNDFTNERLTALQVRLEHLQEKTLKECSSLEHLLSKSGGDCTFIHQFIECQKKLIVEGHLTKAVEETKLSKENQTRAKESDFSDTLSPSKEKSSDDTTDAQMDEQDLNEPLAKVSLLKDDLQGAQSEIEAKQEIQHLRKELIEAQELARTSKQKCFELQALLEEERKAYRNQVEESTKQIQVLQAQLQRLHIDTENLREEKDSEITSTRDELLSARDEILLLHQAAAKVASERDTDIASLQEELKKVRAELERWRKAASEYEKEITSLQNSFQLRCQQCEDQQREEATRLQGELEKLRKEWNALETECHSLKRENVLLSSELQRQEKELHNSQKQSLELTSDLSILQMSRKELENQVGSLKEQHLRDSADLKTLLSKAENQAKDVQKEYEKTQTVLSELKLKFEMTEQEKQSITDELKQCKNNLKLLREKGNNKPWPWMPMLAALVAVTAIVLYVPGLARASP [SLMAP]	0.152	50.6 °C	51.2 °C	0.0117	0.404	0.436
MSVLGEYERHCDSINSDFGSESGGCGDSSPGPSASQGPRAGGGAAEQEELHYIPIRVLGRGAFGEATLYRRTEDDSLVVWKEVDLTRLSEKERRDALNEIVILALLQHDNIIAYYNHFMDNTTLLIELEYCNGGNLYDKILRQKDKLFEEEMVVWYLFQIVSAVSCIHKAGILHRDIKTLNIFLTKANLIKLGDYGLAKKLNSEYSMAETLVGTPYYMSPELCQGVKYNFKSDIWAVGCVIFELLTLKRTFDATNPLNLCVKIVQGIRAMEVDSSQYSLELIQMVHSCLDQDPEQRPTADELLDRPLLRKRRREMEEKVTLLNAPTKRPRSSTVTEAPIAVVTSRTSEVYVWGGGKSTPQKLDVIKSGCSARQVCAGNTHFAVVTVEKELYTWVNMQGGTKLHGQLGHGDKASYRQPKHVEKLQGKAIRQVSCGDDFTVCVTDEGQLYAFGSDYYGCMGVDKVAGPEVLEPMQLNFFLSNPVEQVSCGDNHVVVLTRNKEVYSWGCGEYGRLGLDSEEDYYTPQKVDVPKALIIVAVQCGCDGTFLLTQSGKVLACGLNEFNKLGLNQCMSGIINHEAYHEVPYTTSFTLAKQLSFYKIRTIAPGKTHTAAIDERGRLLTFGCNKCGQLGVGNYKKRLGINLLGGPLGGKQVIRVSCGDEFTIAATDDNHIFAWGNGGNGRLAMTPTERPHGSDICTSWPRPIFGSLHHVPDLSCRGWHTILIVEKVLNSKTIRSNSSGLSIGTVFQSSSPGGGGGGGGGEEEDSQQESETPDPSGGFRGTMEADRGMEGLISPTEAMGNSNGASSSCPGWLRKELENAEFIPMPDSPSPLSAAFSESEKDTLPYEELQGLKVASEAPLEHKPQVEASSPRLNPAVTCAGKGTPLTPPACACSSLQVEVERLQGLVLKCLAEQQKLQQENLQIFTQLQKLNKKLEGGQQVGMHSKGTQTAKEEMEMDPKPDLDSDSWCLLGTDSCRPSL [NEK9]	-0.134	51 °C	51.2 °C	-0.102	0.358	-0.633
KPNA1	0.00375	49 °C	49.7 °C	-0.102	1.89	3.16
MAFPPRRRLRLGPRGLPLLLSGLLLPLCRAFNLDVDSPAEYSGPEGSYFGFAVDFFVPSASSRMFLLVGAPKANTTQPGIVEGGQVLKCDWSSTRRCQPIEFDATGNRDYAKDDPLEFKSHQWFGASVRSKQDKILACAPLYHWRTEMKQEREPVGTCFLQDGTKTVEYAPCRSQDIDADGQGFCQGGFSIDFTKADRVLLGGPGSFYWQGQLISDQVAEIVSKYDPNVYSIKYNNQLATRTAQAIFDDSYLGYSVAVGDFNGDGIDDFVSGVPRAARTLGMVYIYDGKNMSSLYNFTGEQMAAYFGFSVAATDINGDDYADVFIGAPLFMDRGSDGKLQEVGQVSVSLQRASGDFQTTKLNGFEVFARFGSAIAPLGDLDQDGFNDIAIAAPYGGEDKKGIVYIFNGRSTGLNAVPSQILEGQWAARSMPPSFGYSMKGATDIDKNGYPDLIVGAFGVDRAILYRARPVITVNAGLEVYPSILNQDNKTCSLPGTALKVSCFNVRFCLKADGKGVLPRKLNFQVELLLDKLKQKGAIRRALFLYSRSPSHSKNMTISRGGLMQCEELIAYLRDESEFRDKLTPITIFMEYRLDYRTAADTTGLQPILNQFTPANISRQAHILLDCGEDNVCKPKLEVSVDSDQKKIYIGDDNPLTLIVKAQNQGEGAYEAELIVSIPLQADFIGVVRNNEALARLSCAFKTENQTRQVVCDLGNPMKAGTQLLAGLRFSVHQQSEMDTSVKFDLQIQSSNLFDKVSPVVSHKVDLAVLAAVEIRGVSSPDHVFLPIPNWEHKENPETEEDVGPVVQHIYELRNNGPSSFSKAMLHLQWPYKYNNNTLLYILHYDIDGPMNCTSDMEINPLRIKISSLQTTEKNDTVAGQGERDHLITKRDLALSEGDIHTLGCGVAQCLKIVCQVGRLDRGKSAILYVKSLLWTETFMNKENQNHSYSLKSSASFNVIEFPYKNLPIEDITNSTLVTTNVTWGIQPAPMPVPVWVIILAVLAGLLLLAVLVFVMYRMGFFKRVRPPQEEQEREQLQPHENGEGNSET [ITGAV]	0.295	56 °C	54.8 °C	-0.152	-1.75	-1.34
